pKd: −log10 of the molar value.
Experiments:
[1] = target: rhesus neonatal Fc receptor (FcRn) (rhesus) (UniProt Q6V7J5); experiment: BLI; Octet RED384; receptors loaded on HIS1K or SAX biosensors and probed into mAbs in a 2-fold dilution series (20, 10, 5, 2.5, 1.25 μg/mL); pH 6.0; 1:1 model; apparent
[2] = target: human neonatal Fc receptor (FcRn) (human) (UniProt P55899); experiment: as above
[3] = target: human Fc gamma receptor IIA, polymorphism R167 (human) (UniProt P12318); experiment: BLI; Octet RED384; receptors loaded on HIS1K or SAX biosensors, probed into mAbs in a dilution series (2000, 100, 50, 25, 12.5 ug/mL [sic]); pH 7.4; 1:1 model; apparent affinity
human Fc gamma receptor IIA, polymorphism R167 (human), sequence (P12318 34-217 H167R): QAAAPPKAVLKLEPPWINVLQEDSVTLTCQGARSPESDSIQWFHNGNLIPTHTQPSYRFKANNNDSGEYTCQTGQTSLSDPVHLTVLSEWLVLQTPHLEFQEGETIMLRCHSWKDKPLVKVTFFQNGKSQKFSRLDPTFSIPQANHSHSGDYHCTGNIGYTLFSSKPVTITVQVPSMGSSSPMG

[4] = target: human Fc gamma receptor I (FcγRI) (human) (UniProt P12314); experiment: as above
human Fc gamma receptor I (FcγRI) (human), sequence (P12314 16-292): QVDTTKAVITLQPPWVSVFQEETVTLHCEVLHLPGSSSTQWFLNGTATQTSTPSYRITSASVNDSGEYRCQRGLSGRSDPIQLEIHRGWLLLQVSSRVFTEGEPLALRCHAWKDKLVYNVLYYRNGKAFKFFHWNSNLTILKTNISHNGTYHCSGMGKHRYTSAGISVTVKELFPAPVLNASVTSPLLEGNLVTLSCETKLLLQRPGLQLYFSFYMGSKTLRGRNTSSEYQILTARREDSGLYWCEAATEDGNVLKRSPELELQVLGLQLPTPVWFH

[5] = target: human Fc gamma receptor IIA, polymorphism H167 (human) (UniProt P12318); experiment: as above
human Fc gamma receptor IIA, polymorphism H167 (human), sequence (P12318 34-217): as the sequence (P12318 34-217 H167R) above, with R134H counted along it

[6] = target: human Fc gamma receptor IIB (FcγRIIB) (human) (UniProt P31994); experiment: as above
human Fc gamma receptor IIB (FcγRIIB) (human), sequence (P31994 43-217): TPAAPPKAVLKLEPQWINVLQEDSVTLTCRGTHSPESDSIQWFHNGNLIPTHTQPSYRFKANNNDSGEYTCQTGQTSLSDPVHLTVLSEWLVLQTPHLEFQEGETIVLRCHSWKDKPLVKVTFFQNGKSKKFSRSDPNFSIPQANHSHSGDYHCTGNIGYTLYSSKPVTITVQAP

[7] = target: human Fc gamma receptor IIIB, polymorphism NA1 (human) (UniProt O75015); experiment: as above
human Fc gamma receptor IIIB, polymorphism NA1 (human), sequence (O75015 17-233): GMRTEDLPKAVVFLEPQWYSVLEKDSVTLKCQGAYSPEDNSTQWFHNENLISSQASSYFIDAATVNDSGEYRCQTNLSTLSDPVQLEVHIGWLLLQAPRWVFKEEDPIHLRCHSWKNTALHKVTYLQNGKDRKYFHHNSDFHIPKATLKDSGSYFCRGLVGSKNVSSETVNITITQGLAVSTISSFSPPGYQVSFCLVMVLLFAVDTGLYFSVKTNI

[8] = target: human Fc gamma receptor IIIA, polymorphism F176 (human) (UniProt P08637); experiment: as above
human Fc gamma receptor IIIA, polymorphism F176 (human), sequence (P08637 17-208): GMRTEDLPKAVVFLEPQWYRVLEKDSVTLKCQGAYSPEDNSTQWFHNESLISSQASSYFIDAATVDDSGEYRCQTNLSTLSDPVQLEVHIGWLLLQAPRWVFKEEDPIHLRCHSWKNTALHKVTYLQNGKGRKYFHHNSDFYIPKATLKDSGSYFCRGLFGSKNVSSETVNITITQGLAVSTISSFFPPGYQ

[9] = target: human Fc gamma receptor IIIB, polymorphism NA2 (human) (UniProt O75015); experiment: as above
[10] = target: human Fc gamma receptor IIIA, polymorphism V176 (human) (UniProt P08637); experiment: as above
human Fc gamma receptor IIIA, polymorphism V176 (human), sequence (P08637 17-208 F176V): as the sequence (P08637 17-208) above, with F160V counted along it

[11] = target: rhesus neonatal Fc receptor (FcRn) (rhesus) (UniProt Q6V7J5); experiment: BLI; Octet RED384; receptors loaded on HIS1K or SAX biosensors and probed into mAbs in a dilution series (2000, 100, 50, 25, 12.5 μg/mL as printed); pH 7.4; 1:1 model; apparent
[12] = target: human neonatal Fc receptor (FcRn) (human) (UniProt P55899); experiment: as above

human neonatal Fc receptor (FcRn) (human), sequence (P55899 24-297, chain 1 of 2): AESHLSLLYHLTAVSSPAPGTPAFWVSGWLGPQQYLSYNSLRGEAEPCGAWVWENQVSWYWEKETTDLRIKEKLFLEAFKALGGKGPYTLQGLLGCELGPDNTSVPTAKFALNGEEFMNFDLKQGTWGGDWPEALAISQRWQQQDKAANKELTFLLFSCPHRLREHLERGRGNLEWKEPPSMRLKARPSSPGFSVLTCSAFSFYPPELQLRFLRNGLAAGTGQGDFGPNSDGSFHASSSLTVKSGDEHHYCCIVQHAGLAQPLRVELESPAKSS
human neonatal Fc receptor (FcRn) (human), sequence (P61769 21-119, chain 2 of 2, further chain): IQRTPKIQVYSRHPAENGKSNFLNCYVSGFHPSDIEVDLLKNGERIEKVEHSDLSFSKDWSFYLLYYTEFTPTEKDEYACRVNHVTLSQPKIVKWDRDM

Row | Substance | pKd [1] | pKd [2] | pKd [3] | koff [3] | kon [3] | pKd [4] | koff [4] | kon [4] | pKd [5] | koff [5] | kon [5] | pKd [6] | koff [6] | kon [6] | pKd [7] | koff [7] | kon [7] | pKd [9] | koff [9] | kon [9] | further results
1 | CIS43 (antibody) | 6.49 | 7.27 | – | – | – | – | – | – | – | – | – | – | – | – | – | – | – | – | – | – | –
2 | CIS43 human monoclonal antibody | – | – | 5.83 | 0.514 s⁻¹ | 348000 M⁻¹ s⁻¹ | 7.83 | 0.00278 s⁻¹ | 187000 M⁻¹ s⁻¹ | 5.42 | 0.676 s⁻¹ | 176000 M⁻¹ s⁻¹ | 5.50 | 0.812 s⁻¹ | 259000 M⁻¹ s⁻¹ | 5.99 | 0.442 s⁻¹ | 430000 M⁻¹ s⁻¹ | 5.89 | 0.419 s⁻¹ | 327000 M⁻¹ s⁻¹ | pKd [8]: 5.76; koff [8]: 0.273 s⁻¹; kon [8]: 157000 M⁻¹ s⁻¹; pKd [10]: 6.19; koff [10]: 0.105 s⁻¹; kon [10]: 161000 M⁻¹ s⁻¹
3 | CIS43LS (CIS43 with the LS mutations M451L/N457S in the CH3 domain of the Fc region) (antibody) | – | – | 6.12 | 0.349 s⁻¹ | 457000 M⁻¹ s⁻¹ | 7.80 | 0.00308 s⁻¹ | 194000 M⁻¹ s⁻¹ | 5.60 | 0.598 s⁻¹ | 240000 M⁻¹ s⁻¹ | 5.42 | 0.874 s⁻¹ | 230000 M⁻¹ s⁻¹ | 5.93 | 0.356 s⁻¹ | 300000 M⁻¹ s⁻¹ | 6.07 | 0.25 s⁻¹ | 293000 M⁻¹ s⁻¹ | pKd [10]: 6.26; koff [10]: 0.0433 s⁻¹; kon [10]: 78700 M⁻¹ s⁻¹
4 | CIS43LS (antibody) | 7.60 | 8.21 | – | – | – | – | – | – | – | – | – | – | – | – | – | – | – | – | – | – | pKd [11]: 6.58; pKd [12]: 6.63

Source: publication PMC7934869
